Experimental data reported in patent US20040018971A1 (published 2004).

B1: Her2/neu.1174.F1I8 (peptide)
peptide: FPGKNGVI
notes: 8-mer analog of the HER2/neu peptide starting at position 1174
B2: HER2/neu peptide, position 627, 9 amino acids (peptide)
peptide: PINCTHSCV
notes: Synthetic peptide; also called HER2/neu 627-635
B3: HER2/neu peptide, position 999, 10 amino acids (peptide)
peptide: PLDSTFYRSL
notes: Synthetic peptide; also called HER2/neu 999-1008
B4: HER2/neu peptide, position 1119, 10 amino acids (peptide)
peptide: PLPSETDGYV
notes: Synthetic peptide; also called HER2/neu 1119-1128
B5: HER2/neu peptide, position 828, 9 amino acids (peptide)
peptide: QIAKGMSYL
notes: Synthetic peptide; also called HER2/neu 828-836
B6: HER2/neu peptide, position 160, 9 amino acids (peptide)
peptide: QLCYQDTIL
notes: Synthetic peptide; also called HER2/neu 160-168
B7: HER2/neu peptide, position 484, 9 amino acids (peptide)
peptide: QLFRNPHQA
notes: Synthetic peptide; also called HER2/neu 484-492
B8: HER2/neu peptide, position 711, 10 amino acids (peptide)
peptide: QMRILKETEL
notes: Synthetic peptide; also called HER2/neu 711-720
B9: HER2/neu peptide, position 24, 10 amino acids (peptide)
peptide: QVCTGTDMKL
notes: Synthetic peptide; also called HER2/neu 24-33
B10: HER2/neu peptide, position 90, 10 amino acids (peptide)
peptide: QVRQVPLQRL
notes: Synthetic peptide; also called HER2/neu 90-99
B11: HER2/neu peptide, position 54, 9 amino acids (peptide)
peptide: QVVQGNLEL
notes: Synthetic peptide; also called HER2/neu 54-62
B12: HER2/neu peptide, position printed as 515 (read as 545), 10 amino acids (peptide)
peptide: RVLQGLPREY
notes: The row follows '545; 8 then 545; 10 at the same point
B13: HER2/neu peptide, position 166, 10 amino acids (peptide)
peptide: TILWKDIFHK
notes: Synthetic peptide; also called Her2/neu.166
B14: HER2/neu peptide, position 402, 10 amino acids (peptide)
peptide: TLEEITGYLY
notes: Synthetic peptide; also called Her2/neu.402
B15: HER2/neu peptide, position 296, 8 amino acids (peptide)
peptide: VTACPYNY
notes: Synthetic peptide; also called Her2/neu.296
B16: HER2/neu peptide, position 293, 9 amino acids (peptide)
peptide: ASCVTACPY
notes: Synthetic peptide; also called Her2/neu.293

Target: HLA-B*0702 (human)
Experiment: competition vs 125I-labelled probe peptide, purified HLA, gel filtration

Binder | IC50 [nM]
B1 | 458

Target: HLA-B*5101 (human)
Experiment: as above

Binder | IC50 [nM]
B1 | 177

Target: HLA-B*5401 (human)
Experiment: as above

Binder | IC50 [nM]
B1 | 385

Target: T1, HLA-A*0201 (purified HLA class I molecule) (human)
T1 construct: also called HLA-A2.1
Experiment: competition with 125I-labelled standard peptide for purified HLA, gel filtration

Binder | relative binding ratio (IC50 of standard peptide / IC50 of test peptide) [ratio]
B2 | 0.0002
B3 | 0.0001
B4 | 0.0001
PLQPEQLQV (Synthetic peptide) [HER2/neu peptide, position 391, 9 amino acids] | 0.0002
PLTSIISAV (Synthetic peptide) [HER2/neu peptide, position 650, 9 amino acids] | 0.0015
PLTSIISAVV (Synthetic peptide) [HER2/neu peptide, position 650, 10 amino acids] | 0.0003
PVTGASPGGL (Synthetic peptide) [HER2/neu peptide, position 128, 10 amino acids] | 0.0001
B5 | 0.0006
B6 | 0.0001
B7 | 0.0062
QLRSLTEIL (Synthetic peptide) [HER2/neu peptide, position 141, 9 amino acids] | 0.0008
B8 | 0.0001
B9 | 0.0001
QVPLQRLRIV (Synthetic peptide) [HER2/neu peptide, position 93, 10 amino acids] | 0.0001
B10 | 0.0001
B11 | 0.0001
RACHPCSPM (Synthetic peptide) [HER2/neu peptide, position 190, 9 amino acids] | 0.0001

Target: T2, HLA-A*0101 (human)
T2 construct: also called HLA-A1
Experiment: competition with 125I-labelled probe peptide for purified HLA-A*0101, gel filtration

Binder | relative binding ratio
PLPSETDGY [HER2/neu peptide, position 1119, 9 amino acids, listing 1 of 2 here] | 0.0017 ratio (IC50 of standard peptide / IC50 of test peptide)
CVTACPYNY [HER2/neu peptide, position 295, 9 amino acids, listing 1 of 2 here] | 0.0042 ratio (IC50 of standard peptide / IC50 of test peptide)
SMPNPEGRY [HER2/neu peptide, position 281, 9 amino acids, listing 1 of 2 here] | 0.0028 ratio (IC50 of standard peptide / IC50 of test peptide)
LMTFGAKPY [HER2/neu peptide, position 915, 9 amino acids, listing 1 of 3 here] | 0.0011 ratio (IC50 of standard peptide / IC50 of test peptide)
ASCVTACPY (also called Her2/neu.293) | 0.055 ratio (IC50 of standard peptide / IC50 of test peptide)
GSGAFGTVY [HER2/neu peptide, position 727, 9 amino acids, listing 1 of 2 here] | 0.0011 ratio (IC50 of standard peptide / IC50 of test peptide)
ASPLDSTFY [HER2/neu peptide, position 997, 9 amino acids, listing 1 of 2 here] | 0.029 ratio (IC50 of standard peptide / IC50 of test peptide)

Target: HLA-A*1101 (human)
Experiment: competition with 125I-labelled probe peptide on purified HLA-A*1101, relative to standard peptide 940.06

Binder | relative binding ratio
RGTQLFEDNY (Synthetic peptide) [HER2/neu peptide, position 103, 10 amino acids] | 0.0015 ratio (IC50 of standard peptide / IC50 of test peptide)
RILKETELR (Synthetic peptide) [HER2/neu peptide, position 713, 9 amino acids] | 0.0038 ratio (IC50 of standard peptide / IC50 of test peptide)
RILKETELRK (Synthetic peptide) [HER2/neu peptide, position 713, 10 amino acids] | 0.11 ratio (IC50 of standard peptide / IC50 of test peptide)
RLLDIDETEY (Synthetic peptide) [HER2/neu peptide, position 868, 10 amino acids] | 0.0001 ratio (IC50 of standard peptide / IC50 of test peptide)
RLVHRDLAAR (Synthetic peptide) [HER2/neu peptide, position 840, 10 amino acids] | 0.0001 ratio (IC50 of standard peptide / IC50 of test peptide)
B12 | 0.005 ratio (IC50 of standard peptide / IC50 of test peptide)
SMPNPEGRY (Synthetic peptide) | 0.0003 ratio (IC50 of standard peptide / IC50 of test peptide)
SSEDCQSLTR (Synthetic peptide) [HER2/neu peptide, position 208, 10 amino acids] | 0.002 ratio (IC50 of standard peptide / IC50 of test peptide)
SVFQNLQVIR (Synthetic peptide) [HER2/neu peptide, position 423, 10 amino acids] | 0.075 ratio (IC50 of standard peptide / IC50 of test peptide)
TIDVYMIMVK (Synthetic peptide) [HER2/neu peptide, position 948, 10 amino acids] | 0.12 ratio (IC50 of standard peptide / IC50 of test peptide)
B13 | 3.6 ratio (IC50 of standard peptide / IC50 of test peptide)
B14 | 0.0001 ratio (IC50 of standard peptide / IC50 of test peptide)
TLIDTNRSR (Synthetic peptide) [HER2/neu peptide, position 182, 9 amino acids] | 0.0005 ratio (IC50 of standard peptide / IC50 of test peptide)
TVPWDQLFR (Synthetic peptide) [HER2/neu peptide, position 479, 9 amino acids] | 0.0072 ratio (IC50 of standard peptide / IC50 of test peptide)
VARCPSGVK (Synthetic peptide) [HER2/neu peptide, position 597, 9 amino acids] | -0.0002 ratio (IC50 of standard peptide / IC50 of test peptide)
VLIAHNQVR (Synthetic peptide) [HER2/neu peptide, position 84, 9 amino acids] | 0.0007 ratio (IC50 of standard peptide / IC50 of test peptide)
VLQGLPREY (Synthetic peptide) | 0.0002 ratio (IC50 of standard peptide / IC50 of test peptide)
VLVKSPNHVK (Synthetic peptide) [HER2/neu peptide, position 851, 10 amino acids] | 0.0072 ratio (IC50 of standard peptide / IC50 of test peptide)

Target: HLA-A*1101 (human)
Experiment: competition with 125I-labelled probe peptide for purified HLA-A*1101, gel filtration; standard peptide 940.06 [..] (6.0 nM)

Binder | relative binding ratio
LGSGAFGTVY [HER2/neu peptide, position 726, 10 amino acids] | 0.0003 ratio (IC50 of standard peptide / IC50 of test peptide)
LIKRRQQKIR [HER2/neu peptide, position 674, 10 amino acids] | 0.0001 ratio (IC50 of standard peptide / IC50 of test peptide)
LIQRNPQLCY [HER2/neu peptide, position 154, 10 amino acids, listing 1 of 2 here] | 0.0002 ratio (IC50 of standard peptide / IC50 of test peptide)
LLNWCMQIAK [HER2/neu peptide, position 822, 10 amino acids] | 0.14 ratio (IC50 of standard peptide / IC50 of test peptide)
LMTFGAKPY [HER2/neu peptide, position 915, 9 amino acids, listing 2 of 3 here] | 0.0003 ratio (IC50 of standard peptide / IC50 of test peptide)
LSPGKNGVVK [HER2/neu peptide, position 1173, 10 amino acids] | 0.0003 ratio (IC50 of standard peptide / IC50 of test peptide)

Target: T3, HLA-A*0101 (human)
T3 construct: also called HLA-A1
Experiment: competition with 125I-labelled probe peptide for purified HLA-A*0101, gel filtration; ratio = IC50 of standard peptide 944.02 / IC50 of test peptide

Binder | relative binding ratio [ratio]
B15 | 0.1
MTFGAKPY [HER2/neu peptide, position 916, 8 amino acids] | -0.0021
PTAENPEY [HER2/neu peptide, position 1241, 8 amino acids] | 0.003
QIAKGMSY [HER2/neu peptide, position 828, 8 amino acids] | -0.0021
TLEEITGY [HER2/neu peptide, position 402, 8 amino acids] | -0.0021
ETLEEITGY [HER2/neu peptide, position 401, 9 amino acids] | 0.043
VLQGLPREY | 0.005
PLPSETDGY [HER2/neu peptide, position 1119, 9 amino acids, listing 2 of 2 here] | 0.0017
CVTACPYNY [HER2/neu peptide, position 295, 9 amino acids, listing 2 of 2 here] | 0.0042
SMPNPEGRY [HER2/neu peptide, position 281, 9 amino acids, listing 2 of 2 here] | 0.0028
LMTFGAKPY [HER2/neu peptide, position 915, 9 amino acids, listing 3 of 3 here] | 0.0011
B16 | 0.055
GSGAFGTVY [HER2/neu peptide, position 727, 9 amino acids, listing 2 of 2 here] | 0.0011
ASPLDSTFY [HER2/neu peptide, position 997, 9 amino acids, listing 2 of 2 here] | 0.029
FSPAFDNLY [HER2/neu peptide, position 1213, 9 amino acids] | 0.043
LIQRNPQLCY [HER2/neu peptide, position 154, 10 amino acids, listing 2 of 2 here] | 0.03
ELHCPALVTY [HER2/neu peptide, position 265, 10 amino acids] | 0.0015
